# Assay results published in the supplement of paper PMC9170038.
# Tested on: MS2 coat protein
# Test: apparent KD of MS2 coat protein; designed switch direction (-1 OFF switch, 1 ON switch): -1; higher = weaker reporter binding
# Method in brief: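 The apparent KD reported per design is the median over clusters of curve fits to normalised cluster fluorescence. The RNA switches were transcribed on Illumina chips by stalled E. coli RNA polymerase. SNAP-549-labelled MS2 coat protein was titrated from 0.7 or 1.5 nM, doubling up to 3 µM, in Tris-HCl pH 7.5 buffer containing KCl, MgCl2, BSA, DTT, tRNA and Tween-20, with no input, 200 uM small-molecule ligand, or an oligonucleotide input.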
# [1] = input ligand: microRNA oligo, concentration not stated
# [2] = Eterna round: R95, input ligand: FMN 200 uM
# [3] = Eterna round: R95, input ligand: microRNA oligo, concentration not stated
# [4] = Eterna round: R95, input ligand: none
Sequence,apparent KD of MS2 coat protein (input ligand: FMN 200 uM) [nM],apparent KD of MS2 coat protein [1] [nM],apparent KD of MS2 coat protein (input ligand: none) [nM],apparent KD of MS2 coat protein [2] [nM],apparent KD of MS2 coat protein [3] [nM],apparent KD of MS2 coat protein [4] [nM]
"ACGAUGAUCGAAAAGUGUAAACUGACAUGAGGAUCACCCAUGUAGGAUAUGGCUACGAAAAGUAGUCAGAAGGGCAUGUCAUCA [Omei Exc(NG) 3 Av11] (Eterna round: R96, puzzle: Exclusion NG 3)",51.3,34.6,47.9,–,–,–
"ACGCAUUGCCUUUGGUAGUGCGUAACAUGAGGAUCACCCAUGUAGGAUAUGGUAGGCUUUGCUUACCAGAAGGACAUAAUAAAU [Mat - Exclusion NG 3 - Mod of JL - D2] (Eterna round: R96, puzzle: Exclusion NG 3)",52.7,25.1,28.8,–,–,–
"ACGCCACAUGAGGAUCACCCAUGUGAGGAUAUGGCCUGUUUGGCGUGUGCUGGCUCUGUCAGAAGGCGCGUGGG [salish99_ex1_r4_039] (Eterna round: R97, puzzle: Exclusion 1)",45.4,–,42.3,–,–,–
"ACGCCUAUAGUGAGGAUAUUGCGGGUAGGUAUUUGCAAGAAGGCACUUGAGGAUCACCCAAGUGAAGAAGUUGC [Geusra] (Eterna round: R97, puzzle: Brourd's mod of Exclusion 4)",14.7,–,15.1,–,–,–
ACGUCCCAAGUCAGGAUAUAGGCCGGACAAAGGGACUAGAAGGGACAUGAGGAUCACCCAUGUGGGCAAAAGAC [Terarace] (puzzle: Brourd's mod of Exclusion 4),–,–,–,29.4,29.4,32
ACUAGAUGAGGAUAUGCAUAUUUUCGUGUUCUUCUAGAUUAACAUGAGGAUCACCCAUGUAGAAGGCGUCAUUU [Exclusion 2 - 16] (puzzle: Exclusion 2),–,–,–,–,15.7,–
ACUAGAUGAGGAUAUGCAUAUUUUCGUGUUCUUCUAGGUUAACAUGAGGAUCACCCAUGUAGAAGGCGUCUAUG [Exclusion 2 - 24] (puzzle: Exclusion 2),–,–,–,–,19.3,–
"ACUAGCUUUUUGCAUUUUAGGUUUGUUGCUUCGUAUGUAACAUGAGGAUCACCCAUGUAUUACUGAUGUCGUCGUUU [JR_SV3TOV2_Sub090] (Eterna round: R96, puzzle: Sensor v3, turn-off variant 2)",18.5,15.5,20.3,–,–,–
"ACUAGCUUUUUGCAUUUUAGGUUUGUUGCUUCGUAUGUAACAUGAGGAUCACCCAUGUAUUACUGAUGUCGUCGUUU [JR_SV3TOV2_Sub090] (puzzle: Sensor v3, turn-off variant 2)",–,–,–,18.4,16.5,18.5
"ACUCGACAUGAGGAUCACCCAUGUGAGGAUAUGGCCUGUAUGGCGUGAGCUGAAUCAAUCAGAAGGCGCGUGGG [salish99_ex1_r4_053] (Eterna round: R97, puzzle: Exclusion 1)",105,–,44.8,–,–,–
ACUCGUAACUAGGAUAUCCGAAAUAAACGAGGAGGAGAAGGAGUUACAUGAGGAUCACCCAUGUGAUAUAAAGA [Edtisoed] (puzzle: Exclusion 6),–,–,–,47,15.3,17.6
"ACUGGUGCAGGAUAUACAUUCGUGCUUCGGCACGUAAGAUCACAUGAGGAUCACCCAUGUAGAAGGGCACCAGU [E2/5-D2] (Eterna round: R97, puzzle: Exclusion 2)",642,–,81.6,–,–,–
"ACUGUAGAAGGAUAUGCUUCGACUCACAUGAGGAUCACCCAUGUCUUCGUGCAGUCGUCUGCAGAAGGUCUCCAGU [EX5 C.7] (Eterna round: R97, puzzle: Exclusion 5)",1050,–,956,–,–,–
"ACUUACCAUGUCAGGAUAUGUACUUAGAACGCGAUGCAGAAGGGACAUGAGGAUCACCCAUGUAAUGUCUGAUA [Eternabot (L2) Solution 2] (Eterna round: R97, puzzle: Brourd's mod of Exclusion 4)",51.6,–,21.1,–,–,–
"ACUUACUGAGGAUAUACAUAGAUUUACAUGAGGAUCACCCAUGUUCCUCUUUGUAUAAAUGUAGAAGGCAGAAGAU [Mat - Exclusion 5 - JL Mod - D59] (Eterna round: R97, puzzle: Exclusion 5)",183,–,96.5,–,–,–
"ACUUAUUGAGGAUAUACAUUAAAAUACAUGAGGAUCACCCAUGUUCUUCAAUGUAUAUAUGUAGAAGGCAGAAGAA [JL-ex5-4.29 Malcolm mod] (Eterna round: R97, puzzle: Exclusion 5)",57.6,–,22.2,–,–,–
"AGAAAAGACCUAGGAUAUACCCAGUGGGUAGAGGGUCAUAAUAAUAAAACAUGAGGAUCACCCAUGUAGAAGGAGGGAAAGAAG [Biriusdibe] (Eterna round: R96, puzzle: Exclusion NG 2)",58.1,47.1,63.2,–,–,–

Sequence,apparent KD of MS2 coat protein (input ligand: FMN 200 uM) [nM],apparent KD of MS2 coat protein [1] [nM],apparent KD of MS2 coat protein (input ligand: none) [nM],apparent KD of MS2 coat protein [2] [nM],apparent KD of MS2 coat protein [3] [nM],apparent KD of MS2 coat protein [4] [nM]
"AGAAAUGCCCAUGGCCACAAGCUUUCUGCUUGUCUUACUACAUGAGGAUCACCCAUGUAACAUGGGCUCCUGAUAAU [Enzainge] (puzzle: Sensor v3, turn-off variant 2)",–,–,–,13.2,10.4,11.4
"AGAAAUGCCCAUGGCCACAAGCUUUUCGCUUGUCUUACUACAUGAGGAUCACCCAUGUAACAUGGGCUCCUGAUAAU [Resoriraqu] (puzzle: Sensor v3, turn-off variant 2)",–,–,–,12.5,11,12
AGAAGACAUGAGGAUCACCCAUGUAAGGAUAUCGAAGGUAAGAGAGGAAAGAAGUUAACGAGAAGGUACAGGUG [JR_Exclu1_Sub097] (puzzle: Exclusion 1),–,–,–,101,123,116
"AGAAGUAGAAACCGAUCCUACAUGAGGAUCACCCAUGUAGCAAGACGUGCACGCGAAGCUCGUCAGACUACCAGAAC [salish99_TOv1_r3_008] (puzzle: Sensor v3, turn-off variant 1)",–,–,–,229,264,421
"AGAAGUAGUAACCGAUCCUACAUGAGGAUCACCCAUGUAGCUAGACGUGCACGCGACGCUCGUCAGACUACCAGAUG [salish99_TOv1_r3_029] (puzzle: Sensor v3, turn-off variant 1)",–,–,–,270,324,418
"AGAAGUAGUAUCCGAUCCUACAUGAGGAUCACCCAUGUAGCUAGACGUGCACGCGAUGCUCGUCAGACUACCAGAUG [salish99_TOv1_r3_030] (puzzle: Sensor v3, turn-off variant 1)",–,–,–,156,205,405
AGACAGUCAGGAUAUACAUGAGGAUCACCCAUGUUGAGAUGUGAAAGGGCAGGAAUAGGUAGAAGGGACGAGAG [JR_Exclu3_Sub038] (puzzle: Exclusion 3),–,–,–,–,30.6,–
AGAGAGUCAGGAUAUCGGAGGGAGAGGAGAGGAGAGAGGGACGAGAAGGGACAUGAGGAUCACCCAUGUAGGUG [JR_Exclusion4)Sub017] (puzzle: Exclusion 4),–,–,–,263,437,663
"AGAGUACAUGUGAGGAUAUCUGGAGUGUCCCACGAAGAGAAGGCACAUGAGGAUCACCCAUGUCGUCCCGGUUU [Eternabot (L1) Solution 28] (Eterna round: R97, puzzle: Brourd's mod of Exclusion 4)",22.5,–,17.1,–,–,–
"AGAGUGCUGCGAGGAUAUACAUGAGGAUCACCCAUGUUUACCUGUGAGGCAAAGCCUCACAGGUUGUAGAAGGCGCAGUACUCA [Mat - Exclusion NG 2 - Mod of JL - D42] (Eterna round: R96, puzzle: Exclusion NG 2)",9.39,10.1,19.4,–,–,–
"AGAGUGCUGCGAGGAUAUACAUGAGGAUCACCCAUGUUUUCGUGUGAGGCUUUGCCUCACACGAAGUAGAAGGCGCAGUACUCA [Mat - Exclusion NG 2 - Mod of JL - D32] (Eterna round: R96, puzzle: Exclusion NG 2)",7.28,9.46,10.9,–,–,–
"AGAUAACAUGAGGAUCACCCAUGUGAGGAUAUUUACCCAAGAGCUUCGGCUCUCAGGUGAAGAAGGCACGUUGA [EX1 #59] (Eterna round: R97, puzzle: Exclusion 1)",109,–,55.4,–,–,–
"AGAUAGUGGUGAGGAUAUCAGAAUAGAAAGAAAUGAGAAGGCACACAUGAGGAUCACCCAUGUGAGGUCUUGAGACUACAUGGU [Prohibition 40 - Jieux - Exclusion NG 1] (Eterna round: R96, puzzle: Exclusion NG 1)",21.2,12.5,17.3,–,–,–
AGAUCACAUGAGGAUCACCCAUGUGAGGAUAUGAUACUAUGUACUUCGGUACAUAGUAUCAGAAGGCAUGUGGA [Ex1-3: 75] (puzzle: Exclusion 1),–,–,–,–,53.7,–
"AGAUCACAUGAGGAUCACCCAUGUGAGGAUAUGGACUGAAGAGCUUCGGCUCUUCAGUCCAGAAGGCACAAUGA [EX1 #43] (Eterna round: R97, puzzle: Exclusion 1)",40.7,–,28.9,–,–,–
"AGAUGCUCAAGUCGACAUGAGGAUCACCCAUGUACAGUUAAUGAGGAUAUCCGAGAUAAAUAAUAGGAGAAGGCAUGAUCAUGA [Ex NG3 #4] (Eterna round: R96, puzzle: Exclusion NG 3)",103,47.3,102,–,–,–
